{
  "source": "patent US10472401B2",
  "about": "“Peptides and combination of peptides for use in immunotherapy against ovarian cancer and other cancers” (immatics biotechnologies GmbH, priority 2015, dated 2019)",
  "data": [
    {"target": "HLA-A*02:01 (Homo sapiens, UniProt P04439, D140Y/D185E/D98H/E176V/E277Q/G131W/G231S/I119V/I121R/I166T/I218V/L300P/L318F/N151K/N90K/P208A/P217A/Q86G/Q94H/R138H/R169H/T345S)", "experiment": "MHC binding assay (UV-ligand exchange, ELISA of stabilized MHC complexes)", "settings": "MHC class I binding score; binding to HLA-A*02:01 ranged by peptide exchange yield (UV-ligand exchange, ELISA)", "summary_of_the_method": "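Peptide-MHC complexes made by UV-ligand exchange, cleaving a UV-sensitive placeholder peptide and replacing it with the test peptide. Exchange yield measured by ELISA: streptavidin-captured monomers (diluted 100-fold, 1 h, 37 °C) detected with HRP anti-β2m and TMB, absorbance at 450 nm.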", "values": [
      {"substance": "341 (SQIALNEKLVNL; listed as Homo sapiens) [compound 341]", "Peptide exchange": "″+++″ (≥50% = +++)"},
      {"substance": "621 (VLMDRLPSLL; listed as Homo sapiens) [compound 621]", "Peptide exchange": "″++++″ (≥75% = ++++)"},
      {"substance": "590 (SLIEKLWQT; listed as Homo sapiens) [compound 590]", "Peptide exchange": "″++″ (≥20% = ++)"},
      {"substance": "174 (ALAQYLITA; listed as Homo sapiens) [compound 174]", "Peptide exchange": "″+++″ (≥50% = +++)"},
      {"substance": "237 (ALLEASGTLLL; listed as Homo sapiens) [compound 237]", "Peptide exchange": "″++++″ (≥75% = ++++)"},
      {"substance": "426 (RLADKSVLV; listed as Homo sapiens) [compound 426]", "Peptide exchange": "″+++″ (≥50% = +++)"},
      {"substance": "132 (LLVEQPPLAGV; listed as Homo sapiens) [compound 132]", "Peptide exchange": "″+++″ (≥50% = +++)"},
      {"substance": "513 (SLWPSPEQL; listed as Homo sapiens) [compound 513]", "Peptide exchange": "″++″ (≥20% = ++)"},
      {"substance": "149 (NLLELFVQL; listed as Homo sapiens) [compound 149]", "Peptide exchange": "″+++″ (≥50% = +++)"},
      {"substance": "487 (LLINSVFHV; listed as Homo sapiens) [compound 487]", "Peptide exchange": "″+++″ (≥50% = +++)"},
      {"substance": "612 (YLYNEGLSV; listed as Homo sapiens) [compound 612]", "Peptide exchange": "″+++″ (≥50% = +++)"},
      {"substance": "167 (KVLEVTEEFGV; listed as Homo sapiens) [compound 167]", "Peptide exchange": "″+++″ (≥50% = +++)"},
      {"substance": "436 (HLAEVSAEV; listed as Homo sapiens) [compound 436]", "Peptide exchange": "″+++″ (≥50% = +++)"},
      {"substance": "74 (ALLDPEVLSIFV; listed as Homo sapiens) [compound 74]", "Peptide exchange": "″+++″ (≥50% = +++)"},
      {"substance": "376 (AMFESSQNVLL; listed as Homo sapiens) [compound 376]", "Peptide exchange": "″++″ (≥20% = ++)"},
      {"substance": "235 (YLNDLHEVLL; listed as Homo sapiens) [compound 235]", "Peptide exchange": "″++++″ (≥75% = ++++)"},
      {"substance": "378 (ALGYFVPYV; listed as Homo sapiens) [compound 378]", "Peptide exchange": "″+++″ (≥50% = +++)"},
      {"substance": "522 (TLWYRSPEV; listed as Homo sapiens) [compound 522]", "Peptide exchange": "″++″ (≥20% = ++)"},
      {"substance": "137 (TLVLTLPTV; listed as Homo sapiens) [compound 137]", "Peptide exchange": "″++++″ (≥75% = ++++)"},
      {"substance": "6 (VLVSDGVHSV; listed as Homo sapiens) [compound 6]", "Peptide exchange": "″+++″ (≥50% = +++)"},
      {"substance": "233 (VLSETLYEL; listed as Homo sapiens) [compound 233]", "Peptide exchange": "″++″ (≥20% = ++)"},
      {"substance": "358 (ALDEYTSEL; listed as Homo sapiens) [compound 358]", "Peptide exchange": "″++++″ (≥75% = ++++)"},
      {"substance": "383 (ALLELENSVTL; listed as Homo sapiens) [compound 383]", "Peptide exchange": "″+++″ (≥50% = +++)"},
      {"substance": "527 (FLLEPGNLEV; listed as Homo sapiens) [compound 527]", "Peptide exchange": "″++++″ (≥75% = ++++)"},
      {"substance": "154 (ALDDGTPAL; listed as Homo sapiens) [compound 154]", "Peptide exchange": "″++″ (≥20% = ++)"},
      {"substance": "568 (TLYDIAHTPGV; listed as Homo sapiens) [compound 568]", "Peptide exchange": "″++++″ (≥75% = ++++)"},
      {"substance": "182 (MLLEAPGIFL; listed as Homo sapiens) [compound 182]", "Peptide exchange": "″+++″ (≥50% = +++)"},
      {"substance": "201 (RLVDYLEGI; listed as Homo sapiens) [compound 201]", "Peptide exchange": "″+++″ (≥50% = +++)"},
      {"substance": "469 (YLASDEITTV; listed as Homo sapiens) [compound 469]", "Peptide exchange": "″+++″ (≥50% = +++)"},
      {"substance": "97 (SLINGSFLV; listed as Homo sapiens) [compound 97]", "Peptide exchange": "″+++″ (≥50% = +++)"},
      {"substance": "461 (VMFRTPLASV; listed as Homo sapiens) [compound 461]", "Peptide exchange": "″++″ (≥20% = ++)"},
      {"substance": "249 (LLDGFLVNV; listed as Homo sapiens) [compound 249]", "Peptide exchange": "″+++″ (≥50% = +++)"},
      {"substance": "180 (FQIDPHSGLVTV; listed as Homo sapiens) [compound 180]", "Peptide exchange": "″++″ (≥20% = ++)"},
      {"substance": "46 (ILTEENIHL; listed as Homo sapiens) [compound 46]", "Peptide exchange": "″+++″ (≥50% = +++)"},
      {"substance": "298 (VMITKLVEV; listed as Homo sapiens) [compound 298]", "Peptide exchange": "″+++″ (≥50% = +++)"},
      {"substance": "601 (SAFPFPVTV; listed as Homo sapiens) [compound 601]", "Peptide exchange": "″+++″ (≥50% = +++)"},
      {"substance": "162 (YQQAQVPSV; listed as Homo sapiens) [compound 162]", "Peptide exchange": "″+++″ (≥50% = +++)"},
      {"substance": "101 (ILVGGGALATV; listed as Homo sapiens) [compound 101]", "Peptide exchange": "″+++″ (≥50% = +++)"},
      {"substance": "282 (LLADVVPTT; listed as Homo sapiens) [compound 282]", "Peptide exchange": "″+++″ (≥50% = +++)"},
      {"substance": "196 (YLYSVEIKL; listed as Homo sapiens) [compound 196]", "Peptide exchange": "″++++″ (≥75% = ++++)"},
      {"substance": "109 (IILSILEQA; listed as Homo sapiens) [compound 109]", "Peptide exchange": "″++++″ (≥75% = ++++)"},
      {"substance": "300 (ALLGQTFSL; listed as Homo sapiens) [compound 300]", "Peptide exchange": "″+++″ (≥50% = +++)"},
      {"substance": "13 (YLMDESLNL; listed as Homo sapiens) [compound 13]", "Peptide exchange": "″+++″ (≥50% = +++)"},
      {"substance": "287 (FLNEFFLNV; listed as Homo sapiens) [compound 287]", "Peptide exchange": "″+++″ (≥50% = +++)"},
      {"substance": "501 (LLDPNVKSIFV; listed as Homo sapiens) [compound 501]", "Peptide exchange": "″+++″ (≥50% = +++)"},
      {"substance": "498 (KLWTGGLDNTV; listed as Homo sapiens) [compound 498]", "Peptide exchange": "″+++″ (≥50% = +++)"},
      {"substance": "439 (YLLQEIYGI; listed as Homo sapiens) [compound 439]", "Peptide exchange": "″+++″ (≥50% = +++)"},
      {"substance": "573 (ILVANAIVGV; listed as Homo sapiens) [compound 573]", "Peptide exchange": "″+++″ (≥50% = +++)"},
      {"substance": "35 (KINDTIYEV; listed as Homo sapiens) [compound 35]", "Peptide exchange": "″+++″ (≥50% = +++)"},
      {"substance": "407 (YLMDLINFL; listed as Homo sapiens) [compound 407]", "Peptide exchange": "″+++″ (≥50% = +++)"},
      {"substance": "555 (YVLEGLKSV; listed as Homo sapiens) [compound 555]", "Peptide exchange": "″+++″ (≥50% = +++)"},
      {"substance": "373 (SLLEDKGLAEV; listed as Homo sapiens) [compound 373]", "Peptide exchange": "″++″ (≥20% = ++)"},
      {"substance": "320 (KMFEFVEPLL; listed as Homo sapiens) [compound 320]", "Peptide exchange": "″++++″ (≥75% = ++++)"},
      {"substance": "481 (GLIEDYEALL; listed as Homo sapiens) [compound 481]", "Peptide exchange": "″+++″ (≥50% = +++)"},
      {"substance": "579 (NLMEMVAQL; listed as Homo sapiens) [compound 579]", "Peptide exchange": "″++″ (≥20% = ++)"},
      {"substance": "50 (SLSELEALM; listed as Homo sapiens) [compound 50]", "Peptide exchange": "″+++″ (≥50% = +++)"},
      {"substance": "127 (KIGDEPPKV; listed as Homo sapiens) [compound 127]", "Peptide exchange": "″++″ (≥20% = ++)"},
      {"substance": "42 (VLLQKIVSA; listed as Homo sapiens) [compound 42]", "Peptide exchange": "″+++″ (≥50% = +++)"},
      {"substance": "159 (GLVGNPLPSV; listed as Homo sapiens) [compound 159]", "Peptide exchange": "″++++″ (≥75% = ++++)"},
      {"substance": "322 (TLMTSLPAL; listed as Homo sapiens) [compound 322]", "Peptide exchange": "″+++″ (≥50% = +++)"},
      {"substance": "583 (ILANDGVLLAA; listed as Homo sapiens) [compound 583]", "Peptide exchange": "″+++″ (≥50% = +++)"},
      {"substance": "492 (SLFDGFADGLGV; listed as Homo sapiens) [compound 492]", "Peptide exchange": "″+++″ (≥50% = +++)"},
      {"substance": "547 (TLDITPHTV; listed as Homo sapiens) [compound 547]", "Peptide exchange": "″+++″ (≥50% = +++)"},
      {"substance": "520 (LAVHPSGVAL; listed as Homo sapiens) [compound 520]", "Peptide exchange": "″+″ (≥10% = +)"},
      {"substance": "276 (ALFTFSPLTV; listed as Homo sapiens) [compound 276]", "Peptide exchange": "″+++″ (≥50% = +++)"},
      {"substance": "543 (GLLPTPITQQASL; listed as Homo sapiens) [compound 543]", "Peptide exchange": "″+++″ (≥50% = +++)"},
      {"substance": "544 (LLWDVPAPSL; listed as Homo sapiens) [compound 544]", "Peptide exchange": "″+++″ (≥50% = +++)"},
      {"substance": "623 (YLVEDIQHI; listed as Homo sapiens) [compound 623]", "Peptide exchange": "″+++″ (≥50% = +++)"},
      {"substance": "328 (ALNDQVFEI; listed as Homo sapiens) [compound 328]", "Peptide exchange": "″+++″ (≥50% = +++)"},
      {"substance": "488 (FLAEDPKVTL; listed as Homo sapiens) [compound 488]", "Peptide exchange": "″+++″ (≥50% = +++)"},
      {"substance": "299 (YLLETSGNL; listed as Homo sapiens) [compound 299]", "Peptide exchange": "″+++″ (≥50% = +++)"},
      {"substance": "202 (ALLDQQGSRWTL; listed as Homo sapiens) [compound 202]", "Peptide exchange": "″+++″ (≥50% = +++)"},
      {"substance": "248 (FLFPNQYVDV; listed as Homo sapiens) [compound 248]", "Peptide exchange": "″+++″ (≥50% = +++)"},
      {"substance": "578 (FLDPGGPMMKL; listed as Homo sapiens) [compound 578]", "Peptide exchange": "″+++″ (≥50% = +++)"},
      {"substance": "206 (VLQEGKLQKLAQL; listed as Homo sapiens) [compound 206]", "Peptide exchange": "″+++″ (≥50% = +++)"},
      {"substance": "325 (FIMPATVADATAV; listed as Homo sapiens) [compound 325]", "Peptide exchange": "″+++″ (≥50% = +++)"},
      {"substance": "31 (YLAPELFVNV; listed as Homo sapiens) [compound 31]", "Peptide exchange": "″++″ (≥20% = ++)"}
    ]}
  ]
}
